Measured values as given in patent US20200062844A1 (Regeneron, published 2020).

Key:
[1] = molecular target: T1, human CD3 expressed in Jurkat cells (human, UniProt P07766 23-207; P04234 22-171; P20963 22-164; P09693 23-182); test: cell-based or functional assay
hFcεR1α.MMH [2] = molecular target: T2, hFcεR1α.MMH (human); test: SPR (Biacore 8k), antibody captured on anti-human Fc, hFcεR1α.MMH injected, 37°C
T2 construct: also called ectodomain of human FcεR1α with C-term myc-myc-6×His tag
T2 chain: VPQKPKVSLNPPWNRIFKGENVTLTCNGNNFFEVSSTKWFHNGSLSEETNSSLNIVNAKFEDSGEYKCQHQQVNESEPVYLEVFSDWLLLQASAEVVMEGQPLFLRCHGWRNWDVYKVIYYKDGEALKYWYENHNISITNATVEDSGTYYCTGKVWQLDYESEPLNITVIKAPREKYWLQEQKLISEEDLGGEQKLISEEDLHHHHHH
Experimental: (§1) Equilibrium dissociation constants (KD) for human or cynomolgus FcεR1α ectodomain binding to purified anti-FcεR1α monoclonal antibodies (mAbs) and CD3×FcεR1α bispecific antibodies (bsAbs) were determined using a real-time surface plasmon resonance biosensor (SPR-Biacore), Biacore 8k. All binding studies were performed in 10 mM HEPES, 150 mM NaCl, 3 mM EDTA, and 0.05% v/v surfactant Tween-20, pH 7.4 (HBS-ET) running buffer at 25° C. and 37° C.
(§2) The Biacore CM4 sensor surface was first derivatized by amine coupling with a monoclonal mouse anti-human Fc antibody to capture approximately 500-900 RUs anti-FcεR1α monoclonal antibodies or anti-CD3×FcεR1α bispecific monoclonal antibodies. 1 RU (response unit) represents 1 pg of protein per mm², as defined by the manufacturer. The ectodomain of human and cynomolgus FcεR1α reagents were expressed with a C-term myc-myc-6×His tag-hFcεR1α.MMH (SEQ ID NO: 57) and mfFcεR1α.MMH (SEQ ID NO: 58). Different concentrations of FcεR1α reagents were prepared in HBS-ET running buffer (600 nM-7.4 nM; serially diluted by 3-fold) and injected over anti-human Fc captured anti-FcεR1α monoclonal antibodies or anti-CD3×FcεR1α bispecific monoclonal antibodies surfaces for 1 minute at a flow rate of 30 μL/minute. The dissociation of bound FcεR1α reagents was monitored for 4 minutes in HBS-ET running buffer. Association (kₐ) and dissociation (kd) rate constants were determined by fitting the real-time binding sensorgrams to a 1:1 binding model with mass transport limitation using Biacore 8k evaluation software. Binding dissociation equilibrium constants (KD) and dissociative half-lives (t½) were calculated from the kinetic rate constants as: […]

hFcεR1α.MMH [3] = molecular target: T2, hFcεR1α.MMH; test: SPR (Biacore 8k), antibody captured on anti-human Fc, hFcεR1α.MMH injected, 25°C
Experimental: as §1, §2

[4] = molecular target: T3, monkey (cynomolgus) FcεR1α expressed on cells (cynomolgus); test: flow cytometry, 70 nM antibody on HEK293/mfFcεR1α/hFcεR1β/hFcεR1γ cells, No IgE
T3 construct: range 4-260; On HEK293 cells, co-expressed with human FcεR1β and FcεR1γ; also called mfFcεR1α; HEK293/mfFcεR1α/hFcεR1β/hFcεR1γ cells
Experimental: (§3) For flow cytometry analysis, HEK293, HEK293/hFcεR1α/hFcεR1β/hFcεR1γ and HEK293/mf FcεR1α/hFcεR1β/hFcεR1γ cells were collected after dissociation using Enzyme Free Dissociation Buffer (Millipore Cat# S-004), and the cells were pre-incubated with or without 70 nM human IgE, for 30 minutes on ice in FACS buffer (PBS, without Ca⁺⁺ and Mg⁺⁺, (Irvine Scientific, Cat#9240) containing 2% FBS). Jurkat/NFAT-luc cells were also collected. The antibodies at the concentration of 70 nM were then added to 1×10⁶ cells/well of each cell type at 4° C. for 30 minutes. […] Cells were fixed using BD CytoFix™ (Becton Dickinson, Cat. #554655) and analyzed on Accuri™ C6 (BD) or CytoFLEX Flow cytometer (Beckman Coulter). Unstained and secondary antibody alone controls were also tested for all cell lines and a sample was evaluated for viability using the Far Red Fluo viability dye (Thermo Fisher, Cat#L10120) according to the manufacturer's protocol. The results were analyzed using FlowJo software (version 10.0.8, FlowJo) to determine the geometric means of fluorescence for viable cells and the binding ratio was calculated with the mean fluorescence intensity (MFI) of the experimental condition normalized by the MFI of the unstained respective cells.

mfFcεR1α.MMH [5] = molecular target: T4, mfFcεR1α.MMH (cynomolgus (Macaca fascicularis)); test: SPR (Biacore 8k), antibody captured on anti-human Fc, mfFcεR1α.MMH injected, 37°C
T4 construct: also called mfFceR1a.MMH; ectodomain of cynomolgus FcεR1α with C-term myc-myc-6×His tag
T4 chain: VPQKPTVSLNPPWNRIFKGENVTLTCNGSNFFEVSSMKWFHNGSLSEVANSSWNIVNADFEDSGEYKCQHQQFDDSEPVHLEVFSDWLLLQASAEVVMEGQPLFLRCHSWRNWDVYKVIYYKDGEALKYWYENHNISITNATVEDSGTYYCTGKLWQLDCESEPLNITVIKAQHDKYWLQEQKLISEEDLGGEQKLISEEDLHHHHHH
Experimental: as §1, §2

mfFcεR1α.MMH [6] = molecular target: T4, mfFcεR1α.MMH; test: SPR (Biacore 8k), antibody captured on anti-human Fc, mfFcεR1α.MMH injected, 25°C
Experimental: as §1, §2

[7] = molecular target: T1, human CD3 expressed in Jurkat cells; test: flow cytometry, 70 nM antibody on Jurkat/NFAT-luc cells, No IgE
Experimental: as §3

[8] = molecular target: T5, human FcεR1α expressed on cells (human, UniProt P12319 26-257); test: flow cytometry, 70 nM antibody on HEK293/hFcεR1α/hFcεR1β/hFcεR1γ cells pre-incubated with 70 nM human IgE
T5 construct: whole, on cells; Co-expressed with human FcεR1β (amino acids 1-244 of Uniprot Q01362-1) and FcεR1γ (amino acids 1-86 of Uniprot P30273-1); also called hFcεR1α; HEK293/hFcεR1α/hFcεR1β/hFcεR1γ cells
T5 sequence (looked up): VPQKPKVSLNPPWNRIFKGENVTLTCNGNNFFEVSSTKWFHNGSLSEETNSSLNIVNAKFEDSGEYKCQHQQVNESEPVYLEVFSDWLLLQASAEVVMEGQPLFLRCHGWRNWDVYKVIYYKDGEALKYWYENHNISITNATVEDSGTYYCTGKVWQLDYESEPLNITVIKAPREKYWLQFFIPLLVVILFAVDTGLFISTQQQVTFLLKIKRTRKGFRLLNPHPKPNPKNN
Experimental: as §3

[9] = molecular target: T5, human FcεR1α expressed on cells; test: flow cytometry, 70 nM antibody on HEK293/hFcεR1α/hFcεR1β/hFcεR1γ cells, No IgE
Experimental: as §3

[10] = molecular target: T3, monkey (cynomolgus) FcεR1α expressed on …; test: flow cytometry, 70 nM antibody on HEK293/mfFcεR1α/hFcεR1β/hFcεR1γ cells pre-incubated with 70 nM human IgE
Experimental: as §3

[11] = molecular target: T5, human FcεR1α expressed on cells; test: cell-based or functional assay
[12] = molecular target: T5, human FcεR1α expressed on cells; test: cell-based or functional assay; remark: listed apart in the source

T1 sequence (P07766 23-207 limits assumed, chain 1 of 4): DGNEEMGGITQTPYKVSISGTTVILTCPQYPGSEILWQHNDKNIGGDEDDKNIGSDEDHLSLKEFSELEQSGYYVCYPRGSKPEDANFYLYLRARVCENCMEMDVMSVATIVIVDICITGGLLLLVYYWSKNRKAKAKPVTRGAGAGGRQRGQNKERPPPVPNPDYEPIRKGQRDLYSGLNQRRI
T1 sequence (P04234 22-171 limits assumed, chain 2 of 4): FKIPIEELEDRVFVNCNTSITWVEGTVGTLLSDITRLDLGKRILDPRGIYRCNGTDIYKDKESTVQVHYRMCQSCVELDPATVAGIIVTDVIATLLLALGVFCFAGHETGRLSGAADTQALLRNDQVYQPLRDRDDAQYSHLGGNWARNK
T1 sequence (P20963 22-164 limits assumed, chain 3 of 4): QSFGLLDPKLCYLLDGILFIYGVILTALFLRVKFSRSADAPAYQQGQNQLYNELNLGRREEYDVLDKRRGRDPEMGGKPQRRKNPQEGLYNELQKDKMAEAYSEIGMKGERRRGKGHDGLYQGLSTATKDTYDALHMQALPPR
T1 sequence (P09693 23-182 limits assumed, chain 4 of 4): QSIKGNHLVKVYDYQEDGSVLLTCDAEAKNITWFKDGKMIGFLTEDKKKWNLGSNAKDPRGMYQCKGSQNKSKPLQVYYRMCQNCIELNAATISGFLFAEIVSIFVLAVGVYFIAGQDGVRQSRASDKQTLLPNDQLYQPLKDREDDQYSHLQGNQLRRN

- EC50 [M], NFAT-luciferase in Jurkat/NFAT-luc with HEK293/hFcεR1α/hFcεR1β/hFcεR1γ cells, 10 nM IgE [1]: 1.5e-09 M
- EC50 [M], NFAT-luciferase in Jurkat/NFAT-luc with HEK293/hFcεR1α/hFcεR1β/hFcεR1γ cells, No IgE [1]: 3.4e-10 M
- Fold Activation, Jurkat/NFAT-luc with HEK293/hFcεR1α/hFcεR1β/hFcεR1γ cells, 10 nM IgE [1]: 32 fold
- Fold Activation, Jurkat/NFAT-luc with HEK293/hFcεR1α/hFcεR1β/hFcεR1γ cells, No IgE [1]: 32 fold
- 600 nM hFcεR1α.MMH Bound (RU) (hFcεR1α.MMH [2]): 43 RU
- Kd (hFcεR1α.MMH [2]): 801 nM
- koff (hFcεR1α.MMH [2]): 0.0588 s⁻¹
- kon (hFcεR1α.MMH [2]): 73500 M⁻¹ s⁻¹
- t½ (hFcεR1α.MMH [2]): 12 s
- 600 nM hFcεR1α.MMH Bound (RU) (hFcεR1α.MMH [3]): 72 RU
- Kd (hFcεR1α.MMH [3]): 152 nM
- koff (hFcεR1α.MMH [3]): 0.0104 s⁻¹
- kon (hFcεR1α.MMH [3]): 68200 M⁻¹ s⁻¹
- t½ (hFcεR1α.MMH [3]): 66 s
- Binding Ratio (MFI of Treated/MFI of Unstained) [4]: 166
- 600 nM mfFceR1a.MMH Bound (RU) (mfFcεR1α.MMH [5]): 20 RU
- Kd (mfFcεR1α.MMH [5]): 1030 nM
- koff (mfFcεR1α.MMH [5]): 0.0399 s⁻¹
- kon (mfFcεR1α.MMH [5]): 38600 M⁻¹ s⁻¹
- t½ (mfFcεR1α.MMH [5]): 17.4 s
- 600 nM mfFceR1a.MMH Bound (RU) (mfFcεR1α.MMH [6]): 40 RU
- Kd (mfFcεR1α.MMH [6]): 363 nM
- koff (mfFcεR1α.MMH [6]): 0.0144 s⁻¹
- kon (mfFcεR1α.MMH [6]): 39600 M⁻¹ s⁻¹
- t½ (mfFcεR1α.MMH [6]): 48 s
- Binding Ratio (MFI of Treated/MFI of Unstained) [7]: 48
- Binding Ratio (MFI of Treated/MFI of Unstained) [8]: 277
- Binding Ratio (MFI of Treated/MFI of Unstained) [9]: 269
- Binding Ratio (MFI of Treated/MFI of Unstained) [10]: 236
- EC80, cleaved caspase 3+ cleaved PARP+ HEK293/hFcεR1α/hFcεR1β/hFcεR1γ target cells with activated CD8+ T cells [11]: 0.0346 nM
- Maximum percent apoptotic cells, HEK293/hFcεR1α/hFcεR1β/hFcεR1γ target cells with activated CD8+ T cells [11]: 56%
- EC50, decrease of primary human basophils within PBMC with activated CD8+ T cells [12]: 3.75 nM
- Maximum percent basophil decrease, PBMC with activated CD8+ T cells [12]: 90.6%
B1: bsAb24919D (bispecific antibody, human IgG4 S228P, kappa)
heavy 1: QVQLQESGPGLVKPSETLSLTCTVSGDSISDYYWIWIRQPPGKGLEWIGYIYYSGSTNYNPSLKSRVTISVATSKNQFSLKLRSVTAADTAMYYCARRNNWNHVRAFDIWGQGTMVTVSSASTKGPSVFPLAPCSRSTSESTAALGCLVKDYFPEPVTVSWNSGALTSGVHTFPAVLQSSGLYSLSSVVTVPSSSLGTKTYTCNVDHKPSNTKVDKRVESKYGPPCPPCPAPPVAGPSVFLFPPKPKDTLMISRTPEVTCVVVDVSQEDPEVQFNWYVDGVEVHNAKTKPREEQFNSTYRVVSVLTVLHQDWLNGKEYKCKVSNKGLPSSIEKTISKAKGQPREPQVYTLPPSQEEMTKNQVSLTCLVKGFYPSDIAVEWESNGQPENNYKTTPPVLDSDGSFFLYSRLTVDKSRWQEGNVFSCSVMHEALHNHYTQKSLSLSLGK
heavy 2: EVQLVESGGGLVQPGRSLRLSCAASGFTFDDYSMHWVRQAPGKGLEWVSGISWNSGSIGYADSVKGRFTISRDNAKNSLYLQMNSLRAEDTALYYCAKYGSGYGKFYYYGMDVWGQGTTVTVSSASTKGPSVFPLAPCSRSTSESTAALGCLVKDYFPEPVTVSWNSGALTSGVHTFPAVLQSSGLYSLSSVVTVPSSSLGTKTYTCNVDHKPSNTKVDKRVESKYGPPCPPCPAPPVAGPSVFLFPPKPKDTLMISRTPEVTCVVVDVSQEDPEVQFNWYVDGVEVHNAKTKPREEQFNSTYRVVSVLTVLHQDWLNGKEYKCKVSNKGLPSSIEKTISKAKGQPREPQVYTLPPSQEEMTKNQVSLTCLVKGFYPSDIAVEWESNGQPENNYKTTPPVLDSDGSFFLYSRLTVDKSRWQEGNVFSCSVMHEALHNRFTQKSLSLSPGK
light: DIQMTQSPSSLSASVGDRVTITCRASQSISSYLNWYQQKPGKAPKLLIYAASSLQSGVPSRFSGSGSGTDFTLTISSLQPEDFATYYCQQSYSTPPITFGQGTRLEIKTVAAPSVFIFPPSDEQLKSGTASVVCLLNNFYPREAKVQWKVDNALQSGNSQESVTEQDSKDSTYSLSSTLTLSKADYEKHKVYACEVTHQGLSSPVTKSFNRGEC
notes: IgG4 Fc domain; two distinct heavy chains with a common light chain; also called anti-FcεR1α×CD3 bispecific antibody; FcεR1α × hCD3
